Test results as given in publication PMC6194269, “Structural and functional characterization of hMEX‐3C Ring finger domain as an E3 ubiquitin ligase” (Protein Science : A Publication of the Protein Society, 2018).

Biological target: the molecule itself
Experiment: SEC; GST fusion digested by TEV protease and loaded on an S75 column; molecular weight calculated from elution volume

B1: Ring finger domain of hMEX-3C (domain or fragment, human, UniProt Q5U5Q3 603-659, looked up)
chain: RRKHDCVICFENEVIAALVPCGHNLFCMECANKICEKRTPSCPVCQTAVTQAIQIHS
notes: two zinc ions per monomer; also called hMEX-3C Ring finger domain; hMEX-3C Ring homodimer; source: E. coli BL21 (DE3), purified (GST column, Superdex 75); GST fusion digested by TEV protease
stoichiometry N: 2
